Test results reported in US20230395193A1 (priority 2020, published 2023).

Tested on: SARS-CoV-1, MERS-CoV and SARS-CoV-2 proteins in HEK293T cells
Set-up: species or system human

| Molecule | MIST_MERS | MIST_SARS1 | MIST_SARS2 | Saint_MERS | Saint_SARS1 | Saint_SARS2 |
| --- | --- | --- | --- | --- | --- | --- |
| M-Q96HR9 (protein, UniProt Q96HR9 1-211, looked up) Receptor expression-enhancing …: MDGLRQRVEHFLEQRNLVTEVLGALEAKTGVEKRYLAAGAVTLLSLYLLFGYGASLLCNLIGFVYPAYASIKAIESPSKDDDTVWLTYWVVYALFGLAEFFSDLLLSWFPFYYVGKCAFLLFCMAPRPWNGALMLYQRVVRPLFLRHHGAVDRIMNDLSGRALDAAAGITRNVLQVLARSRAGITPVAVAGPSTPLEADLKPSQTPQPKDK | 0 | 0 | 0.9557 | 0 | 0 | 0.65 |
| M-Q8NDZ4 (protein, UniProt Q8NDZ4 36-430, looked up) Divergent protein kinase …: LASWQRNELTDRRFLQLNKCPACFGTSWCRRFLNGQVVFEAWGRLRLLDFLNVKNVYFAQYGEPREGGRRRVVLKRLGSQRELAQLDQSICKRATGRPRCDLLQAMPRTEFARLNGDVRLLTPEAVEGWSDLVHCPSQRLLDRLVRRYAETKDSGSFLLRNLKDSERMQLLLTLAFNPEPLVLQSFPSDEGWPFAKYLGACGRMVAVNYVGEELWSYFNAPWEKRVDLAWQLMEIAEQLTNNDFEFALYLLDVSFDNFAVGPRDGKVIIVDAENVLVADKRLIRQNKPENWDVWYESKFDDCDKEACLSFSKEILCARATVDHNYYAVCQNLLSRHATWRGTSGGLLHDPPSEIAKDGRLEALLDECANPKKRYGRFQAAKELREYLAQLSNNVR | 0.7477 | 0 | 0 | 1 | 0 | 0 |
| M-Q8WUD6 (protein, UniProt Q8WUD6 2-406, looked up) Cholinephosphotransferase 1: AAGAGAGSAPRWLRALSEPLSAAQLRRLEEHRYSAAGVSLLEPPLQLYWTWLLQWIPLWMAPNSITLLGLAVNVVTTLVLISYCPTATEEAPYWTYLLCALGLFIYQSLDAIDGKQARRTNSCSPLGELFDHGCDSLSTVFMAVGASIAARLGTYPDWFFFCSFIGMFVFYCAHWQTYVSGMLRFGKVDVTEIQIALVIVFVLSAFGGATMWDYTIPILEIKLKILPVLGFLGGVIFSCSNYFHVILHGGVGKNGSTIAGTSVLSPGLHIGLIIILAIMIYKKSATDVFEKHPCLYILMFGCVFAKVSQKLVVAHMTKSELYLQDTVFLGPGLLFLDQYFNNFIDEYVVLWMAMVISSFDMVIYFSALCLQISRHLHLNIFKTACHQAPEQVQVLSSKSHQNNMD | 0 | 0.8979 | 0.636 | 0 | 0.98 | 0.65 |
| M-Q96AA3 (protein, UniProt Q96AA3 1-541, looked up, interaction partner of viral M protein) Man(5)GlcNAc(2)-PP-dolichol …: MGSQEVLGHAARLASSGLLLQVLFRLITFVLNAFILRFLSKEIVGVVNVRLTLLYSTTLFLAREAFRRACLSGGTQRDWSQTLNLLWLTVPLGVFWSLFLGWIWLQLLEVPDPNVVPHYATGVVLFGLSAVVELLGEPFWVLAQAHMFVKLKVIAESLSVILKSVLTAFLVLWLPHWGLYIFSLAQLFYTTVLVLCYVIYFTKLLGSPESTKLQTLPVSRITDLLPNITRNGAFINWKEAKLTWSFFKQSFLKQILTEGERYVMTFLNVLNFGDQGVYDIVNNLGSLVARLIFQPIEESFYIFFAKVLERGKDATLQKQEDVAVAAAVLESLLKLALLAGLTITVFGFAYSQLALDIYGGTMLSSGSGPVLLRSYCLYVLLLAINGVTECFTFAAMSKEEVDRYNFVMLALSSSFLVLSYLLTRWCGSVGFILANCFNMGIRITQSLCFIHRYYRRSPHRPLAGLHLSPVLLGTFALSGGVTAVSEVFLCCEQGWPARLAHIAVGAFCLGATLGTAFLTETKLIHFLRTQLGVPRRTDKMT | 0 | 0.809 | 0.5513 | 0 | 0.95 | 0.98 |
| M-Q8TBF5 (protein, UniProt Q8TBF5 22-258, looked up, prey of SARS-CoV-2 M) GPI …: LTRGPAAAFTAARSDAGIRAMCSEIILRQEVLKDGFHRDLLIKVKFGESIEDLHTCRLLIKQDIPAGLYVDPYELASLRERNITEAVMVSENFDIEAPNYLSKESEVLIYARRDSQCIDCFQAFLPVHCRYHRPHSEDGEASIVVNNPDLLMFCDQEFPILKCWAHSEVAAPCALENEDICQWNKMKYKSVYKNVILQVPVGLTVHTSLVCSVTLLITILCSTLILVAVFKYGHFSL | 0 | 0.9901 | 0.4273 | 0 | 0.99 | 0.33 |
| M-Q8NEW0 (protein, UniProt Q8NEW0 1-376, looked up, interaction partner of viral M protein) Zinc transporter 7: MLPLSIKDDEYKPPKFNLFGKISGWFRSILSDKTSRNLFFFLCLNLSFAFVELLYGIWSNCLGLISDSFHMFFDSTAILAGLAASVISKWRDNDAFSYGYVRAEVLAGFVNGLFLIFTAFFIFSEGVERALAPPDVHHERLLLVSILGFVVNLIGIFVFKHGGHGHSHGSGHGHSHSLFNGALDQAHGHVDHCHSHEVKHGAAHSHDHAHGHGHFHSHDGPSLKETTGPSRQILQGVFLHILADTLGSIGVIASAIMMQNFGLMIADPICSILIAILIVVSVIPLLRESVGILMQRTPPLLENSLPQCYQRVQQLQGVYSLQEQHFWTLCSDVYVGTLKLIVAPDADARWILSQTHNIFTQAGVRQLYVQIDFAAM | 0.5834 | 0.6222 | 0.767 | 0.64 | 0.97 | 1 |
| M-Q96ER3 (protein, UniProt Q96ER3 1-474, looked up, host interactor of M) Protein SAAL1: MDRNPSPPPPGRDKEEEEEVAGGDCIGSTVYSKHWLFGVLSGLIQIVSPENTKSSSDDEEQLTELDEEMENEICRVWDMSMDEDVALFLQEFNAPDIFMGVLAKSKCPRLREICVGILGNMACFQEICVSISSDKNLGQVLLHCLYDSDPPTLLETSRLLLTCLSQAEVASVWVERIQEHPAIYDSICFIMSSSTNVDLLVKVGEVVDKLFDLDEKLMLEWVRNGAAQPLDQPQEESEEQPVFRLVPCILEAAKQVRSENPEWLDVYMHILQLLTTVDDGIQAIVHCPDTGKDIWNLLFDLVCHEFCQSDDPPIILQEQKTVLASVFSVLSAIYASQTEQEYLKIEKVDLPLIDSLIRVLQNMEQCQKKPENSAESNTEETKRTDLTQDDFHLKILKDILCEFLSNIFQALTKETVAQGVKEGQLSKQKCSSAFQNLLPFYSPVVEDFIKILREVDKALADDLEKNFPSLKVQT | 0 | 0.3763 | 0.7695 | 0 | 0.98 | 1 |
| M-Q8TCJ2 (protein, UniProt Q8TCJ2 2-826, looked up) Dolichyl-diphosphooligosacchar …: AEPSAPESKHKSSLNSSPWSGLMALGNSRHGHHGPGAQCAHKAAGGAAPPKPAPAGLSGGLSQPAGWQSLLSFTILFLAWLAGFSSRLFAVIRFESIIHEFDPWFNYRSTHHLASHGFYEFLNWFDERAWYPLGRIVGGTVYPGLMITAGLIHWILNTLNITVHIRDVCVFLAPTFSGLTSISTFLLTRELWNQGAGLLAACFIAIVPGYISRSVAGSFDNEGIAIFALQFTYYLWVKSVKTGSVFWTMCCCLSYFYMVSAWGGYVFIINLIPLHVFVLLLMQRYSKRVYIAYSTFYIVGLILSMQIPFVGFQPIRTSEHMAAAGVFALLQAYAFLQYLRDRLTKQEFQTLFFLGVSLAAGAVFLSVIYLTYTGYIAPWSGRFYSLWDTGYAKIHIPIIASVSEHQPTTWVSFFFDLHILVCTFPAGLWFCIKNINDERVFVALYAISAVYFAGVMVRLMLTLTPVVCMLSAIAFSNVFEHYLGDDMKRENPPVEDSSDEDDKRNQGNLYDKAGKVRKHATEQEKTEEGLGPNIKSIVTMLMLMLLMMFAVHCTWVTSNAYSSPSVVLASYNHDGTRNILDDFREAYFWLRQNTDEHARVMSWWDYGYQIAGMANRTTLVDNNTWNNSHIALVGKAMSSNETAAYKIMRTLDVDYVLVIFGGVIGYSGDDINKFLWMVRIAEGEHPKDIRESDYFTPQGEFRVDKAGSPTLLNCLMYKMSYYRFGEMQLDFRTPPGFDRTRNAEIGNKDIKFKHLEEAFTSEHWLVRIYKVKAPDNRETLDHKPRVTNIFPKQKYLSKKTTKRKRGYIKNKLVFKKGKKISKKTV | 0 | 0.991 | 0.01779 | 0 | 1 | 0 |
